T1: IIIb
T1 chain: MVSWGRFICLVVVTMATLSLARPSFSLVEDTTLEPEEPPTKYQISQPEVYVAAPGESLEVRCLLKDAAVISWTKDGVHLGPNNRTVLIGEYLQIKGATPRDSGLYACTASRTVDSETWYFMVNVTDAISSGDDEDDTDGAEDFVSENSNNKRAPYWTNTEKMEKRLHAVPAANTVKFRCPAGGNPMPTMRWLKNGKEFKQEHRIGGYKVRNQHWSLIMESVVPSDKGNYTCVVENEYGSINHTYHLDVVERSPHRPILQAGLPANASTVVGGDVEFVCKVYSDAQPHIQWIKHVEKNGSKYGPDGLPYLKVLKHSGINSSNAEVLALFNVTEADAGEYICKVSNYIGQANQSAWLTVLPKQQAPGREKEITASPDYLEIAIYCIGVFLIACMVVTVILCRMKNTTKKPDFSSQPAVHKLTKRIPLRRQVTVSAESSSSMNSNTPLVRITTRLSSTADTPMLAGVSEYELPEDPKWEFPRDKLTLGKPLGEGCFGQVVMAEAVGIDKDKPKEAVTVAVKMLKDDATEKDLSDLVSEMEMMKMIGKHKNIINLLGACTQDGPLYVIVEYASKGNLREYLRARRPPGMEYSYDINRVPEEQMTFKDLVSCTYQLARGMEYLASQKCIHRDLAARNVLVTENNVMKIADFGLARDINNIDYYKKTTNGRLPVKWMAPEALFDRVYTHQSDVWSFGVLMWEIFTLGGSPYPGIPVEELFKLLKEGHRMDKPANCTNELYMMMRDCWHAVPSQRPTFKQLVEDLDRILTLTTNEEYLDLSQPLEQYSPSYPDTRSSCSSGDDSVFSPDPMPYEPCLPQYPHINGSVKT

B1: humanized anti-FGFR2 antibody hFR2-14_H7/L1 (antibody, V domains shown)
VH: QVQLVQSGAEVKKPGASVKVSCKASGFTFSTSYMSWVRQAPGPSTEWMGWIYAGDGGTKYNQKFKGRVTLTVDKSTSTAYMELSSLRSEDTAVYYCATDEYGDWFTYWGQGTLVTVSS
VL: DIQMTQSPSSLSASVGDRVTITCRASEDIYSNLAWYQQKPGKSPQLLIYDANILADGVPSRFSGSGSGTDYTLTISSLQPEDFATYYCQQYNNYPPFTFGQGTKVEIKR
B2: humanized anti-FGFR2 antibody hFR2-14_H18/L1 (antibody, V domains shown)
VH: B1 VH with E100Y
VL: B1 VL
B3: humanized anti-FGFR2 antibody hFR2-14_H5/L1 (antibody, V domains shown)
VH: B1 VH with D99E, E100G
VL: B1 VL
B4: humanized anti-FGFR2 antibody hFR2-14_H15/L1 (antibody, V domains shown)
VH: B1 VH with E100R
VL: B1 VL
B5: humanized anti-FGFR2 antibody hFR2-14_H17/L1 (antibody, V domains shown)
VH: B1 VH with E100W
VL: B1 VL
B6: humanized anti-FGFR2 antibody hFR2-14_H10/L1 (antibody, V domains shown)
VH: B1 VH with E100I
VL: B1 VL
B7: humanized anti-FGFR2 antibody hFR2-14_H6/L1 (antibody, V domains shown)
VH: B1 VH with E100A
VL: B1 VL
B8: humanized anti-FGFR2 antibody hFR2-14_H13/L1 (antibody, V domains shown)
VH: B1 VH with E100M
VL: B1 VL
B9: humanized anti-FGFR2 antibody hFR2-14_H16/L1 (antibody, V domains shown)
VH: B1 VH with E100V
VL: B1 VL
B10: humanized anti-FGFR2 antibody hFR2-14_H9/L1 (antibody, V domains shown)
VH: B1 VH with E100H
VL: B1 VL
B11: humanized anti-FGFR2 antibody hFR2-14_H11/L1 (antibody, V domains shown)
VH: B1 VH with E100K
VL: B1 VL
B12: humanized anti-FGFR2 antibody hFR2-14_H14/L1 (antibody, V domains shown)
VH: B1 VH with E100Q
VL: B1 VL
B13: human chimeric anti-FGFR2 antibody cFR2-14 (antibody, V domains shown)
VH: QVKLLQSGAELVKPGASVKLSCKTSGFTFSTSYMSWLKQVPGPSTEWIGWIYAGDGGTKYNQKFKGKATLTVDKFSSTAYMDLSSLTSEDAAVYFCATDGYGDWFTYWGQGTLVTVSS
VL: DIQMTQSPASLSASLGETVTIECRASEDIYSNLAWYQQKPGNSPQLLIYDANILADGVPSRFSGSGSGTQYSLKINSLQSEDVASYFCQQYNNYPPFTFGAGTKLELKR
B14: humanized anti-FGFR2 antibody hFR2-14_H4/L1 (antibody, V domains shown)
VH: B1 VH with T45I, E100G, T106A
VL: B1 VL
B15: humanized anti-FGFR2 antibody hFR2-14_H1/L1 (antibody, V domains shown)
VH: B1 VH with P43Q, S44G, T45L, E100G
VL: B1 VL
B16: humanized anti-FGFR2 antibody hFR2-14_H2/L1 (antibody, V domains shown)
VH: B1 VH with P43Q, S44G, T45L, V72A, E100G
VL: B1 VL

Changes are numbered by the printed parent chain.

In the first experiment the target is human FGFR2 IIIc variant protein (isoform 1: NP_000132), expressed on transfected cells (UniProt P21802 22-821). As to the kind of experiment: Biacore. A general note: SPR reads the build-up and loss of mass on a sensor chip optically.
Chain of human FGFR2 IIIc variant protein (isoform 1: NP_000132), expressed on transfected cells (P21802 22-821, change not shown): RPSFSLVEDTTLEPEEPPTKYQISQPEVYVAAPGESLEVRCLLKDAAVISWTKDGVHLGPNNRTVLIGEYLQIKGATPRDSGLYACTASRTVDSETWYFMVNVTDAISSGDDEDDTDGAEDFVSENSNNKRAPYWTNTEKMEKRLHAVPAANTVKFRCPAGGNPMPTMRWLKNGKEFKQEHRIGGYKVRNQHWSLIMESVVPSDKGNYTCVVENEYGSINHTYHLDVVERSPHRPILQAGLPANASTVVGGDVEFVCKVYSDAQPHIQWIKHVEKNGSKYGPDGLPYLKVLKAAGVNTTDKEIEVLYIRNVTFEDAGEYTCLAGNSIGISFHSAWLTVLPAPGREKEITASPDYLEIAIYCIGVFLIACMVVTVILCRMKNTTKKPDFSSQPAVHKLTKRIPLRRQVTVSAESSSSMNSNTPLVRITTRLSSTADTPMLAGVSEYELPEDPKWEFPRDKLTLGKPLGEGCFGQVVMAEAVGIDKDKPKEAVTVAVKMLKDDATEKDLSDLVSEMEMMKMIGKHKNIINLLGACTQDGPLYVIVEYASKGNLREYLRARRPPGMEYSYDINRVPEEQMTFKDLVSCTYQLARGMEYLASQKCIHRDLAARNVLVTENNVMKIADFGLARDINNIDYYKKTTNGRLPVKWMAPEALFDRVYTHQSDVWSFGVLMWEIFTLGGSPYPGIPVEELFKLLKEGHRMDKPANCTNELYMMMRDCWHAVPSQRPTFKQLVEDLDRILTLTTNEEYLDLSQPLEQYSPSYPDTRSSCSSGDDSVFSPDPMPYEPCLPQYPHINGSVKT
Broadly, the Kd is a measure of binding affinity in units of concentration. Turning to B1, the affinity, expressed as Kd, was 1.2 nM.

As for B2, the Kd came out at 1.2 nM.

For the molecule B3, binding was put at a Kd of 0.95 nM.

The molecule B4 gave a Kd of 3.4 nM. This Kd is about 3.6-fold higher than that of the molecule before.

For B5, binding was characterised by a dissociation constant (Kd) of 1.5 nM.

In the case of B6, binding was characterised by a dissociation constant (Kd) of 0.69 nM.

B7: the Kd was found to be 1.5 nM.

B8 gave a Kd of 0.67 nM.

The molecule B9 yielded a Kd of 0.91 nM. The Kd values of the last two molecules are within 1.5-fold of each other.

As to B10, the Kd was 0.51 nM. This Kd lies about 1.8-fold lower than the previous one.

Consider B11, for which the dissociation constant Kd came to 2.1 nM.

In the case of B12, the Kd worked out at 2.3 nM.

For the next experiment, the target named is T1, IIIb. As to the kind of experiment: Biacore; rhFGFR2 alpha (IIIb) Fc chimera.
For the molecule B13, the Kd is 63 nM.

Molecule B14 yielded a Kd of 5.4 nM.

For B15, the Kd worked out at 12 nM.

B16: the Kd amounted to 8.7 nM. The Kd values of the last two molecules are within 1.5-fold of each other.

The target in the next experiment is IIIc. Kind of experiment: Biacore; rhFGFR2 alpha (IIIc) Fc chimera.
In the case of B14, binding was put at a Kd of 2.8 nM.

B15 yielded a Kd of 3 nM.

B16: the affinity, expressed as Kd, was 6.4 nM.
